Source: paper PMC11285730 (Open Biology, 2024)

Assays:
Test in all cases: BLI
Settings in all cases: both partners purified
[1] = target: T1, SARS-CoV-2 Beta RBD, biotin-tagged (SARS-CoV-2 Beta (B.1.351), E484K | N501Y, biotin)
T1 construct: source: Expi293, purified

[2] = target: T2, SARS-CoV-2 Omicron BA.1 RBD, biotin-tagged (SARS-CoV-2 Omicron BA.1, S371L | S375F | K/V417N | S477N | E484A | N501Y | Y505H, biotin)
T2 construct: source: Expi293, purified

[3] = target: T3, SARS-CoV-2 Omicron BA.4/5 RBD, biotin-tagged (SARS-CoV-2 Omicron BA.4/5, S371F | S375F | D405N | R408S | L452R | E484A | F486V | N501Y, biotin)
T3 construct: source: Expi293, purified

Row | Binder | Kd [1] | koff [1] | kon [1] | Kd [2] | koff [2] | kon [2] | Kd [3] | koff [3] | kon [3]
1 | A8 monomer (VHH) VHH: QVQLVESGGGLVQAGGSLRLSCAASGGTFSTAAMGWFRQAPGEERECVASIGWRGVRTWYADSVKGRFTISRDNPQNTVYLQMNNLKSGDTAVYYCAASVGNYGLPWAHFEYDFWGQGIQVTVSS | 0.889 nM | 0.000289 s⁻¹ | 326000 M⁻¹ s⁻¹ | 15.7 nM | 0.0053 s⁻¹ | 343000 M⁻¹ s⁻¹ | 8.1 nM | 0.00283 s⁻¹ | 349000 M⁻¹ s⁻¹
2 | B5-5 monomer (VHH) VHH: QVQLVESGGGLVQPGGSLRLSCAVFGSTLDNYSVGWFRQLPGKEREGLACFSRRYGAPYYADSAKDRFTISRDNAKNTVDLQLNGLKPEDTAVYYCATRSGPYCTTSVSDFDDWGRGTQVTVSS | 0.0655 nM | 1.29e-05 s⁻¹ | 216000 M⁻¹ s⁻¹ | 0.355 nM | 0.000204 s⁻¹ | 576000 M⁻¹ s⁻¹ | 0.684 nM | 0.000129 s⁻¹ | 190000 M⁻¹ s⁻¹
3 | H6 monomer (VHH) VHH: QVQLVESGGGLVQPGGSLTLSCVASESSLAPYRVAWFRQAPGKEREGVSCISRDAHPTSTYYTASVKGRFTMSRDNAKNTVYLQMNSLKPSDTAVYYCATDLGGYCSDSNYPRAWWGQGTQVTVSS | 0.677 nM | 0.000337 s⁻¹ | 498000 M⁻¹ s⁻¹ | 22.7 nM | 0.00553 s⁻¹ | 245000 M⁻¹ s⁻¹ | 7.08 nM | 0.00235 s⁻¹ | 333000 M⁻¹ s⁻¹
